These results are taken from publication PMC9515155.

Test [1] addresses human IgE (Calbiochem) (human). Kind of test: SPR. The following applies: Fc fusion.
The target in a further test is IgE_(TRAP) (human) (UniProt P12319). Put plainly: SPR; ProteOn XPR36, GLC chip; 500 RU of IgE_(TRAP) immobilised in acetate buffer pH 4.0 (850 RU of omalizumab at pH 5.5); human IgE flowed over; PBS with 0.005% Tween-20, 30 μL/min.

Sequence of human IgE (Calbiochem) (natural protein) (P01854 whole entry): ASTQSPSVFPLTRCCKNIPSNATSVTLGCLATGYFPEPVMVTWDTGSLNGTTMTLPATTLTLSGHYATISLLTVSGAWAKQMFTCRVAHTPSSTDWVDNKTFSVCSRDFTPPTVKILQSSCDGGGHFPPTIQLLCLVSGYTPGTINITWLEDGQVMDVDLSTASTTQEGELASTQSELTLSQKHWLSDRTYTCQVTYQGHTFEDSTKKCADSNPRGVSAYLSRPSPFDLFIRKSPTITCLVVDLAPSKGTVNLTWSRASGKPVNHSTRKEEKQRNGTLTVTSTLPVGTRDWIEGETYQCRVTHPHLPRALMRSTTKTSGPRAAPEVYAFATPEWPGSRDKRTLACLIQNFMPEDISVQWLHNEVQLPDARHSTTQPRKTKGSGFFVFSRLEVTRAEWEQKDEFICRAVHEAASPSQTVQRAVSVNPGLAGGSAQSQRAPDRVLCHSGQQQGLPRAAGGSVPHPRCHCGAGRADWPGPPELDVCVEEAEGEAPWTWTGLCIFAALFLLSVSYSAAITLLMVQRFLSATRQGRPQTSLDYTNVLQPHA
Sequence of human IgE (Calbiochem) (human) (P01854 whole entry, the tested form may be a part): as the sequence (P01854 whole entry) above

On to “IgE_(TRAP) (from UniProt P12319 25-205; P01880 133-170; P01861 121-327)”, for which, in test [1], the Kd is 0.215 nM and the koff was determined as 5.69e-05 s⁻¹.

Consider “human IgE (Calbiochem) (natural protein)”, for which, in the test with IgE_(TRAP) (human), the fold higher binding affinity than omalizumab was 69 fold, the fold lower association rate constant (Ka) than omalizumab came out at 1.5 fold and the fold lower dissociation rate constant (Kd) than omalizumab worked out at 105 fold.
